# Laboratory results taken from US20240018502A1.
# B1: Modified MTSP-1 protease domain Q38H/I41S/D60bT/F60eS/Y60gW/F97D/ins97aV/T98P/F99L/C122S/G151H/Q175L/Q192E (enzyme)
# chain: VVGGTDADEGEWPWQVSLHALGHGHSCGASLISPNWLVSAAHCYIDTRGSRWSDPTQWTAFLGLHDQSQRSAPGVQERRLKRIISHPFFNDDVPLDYDIALLELEKPAEYSSMVRPISLPDASHVFPAGKAIWVTGWGHTQYGGTHALILQKGEIRVINQTTCENLLPQLITPRMMCVGFLSGGVDSCEGDSGGPLSSVEADGRIFQAGVVSWGDGCAQRNKPGVYTRLPLFRDWIKENTGV
# B2: Modified MTSP-1 protease domain Q38H/I41S/D60bT/F60eS/Y60gW/F97D/ins97aV/T98P/F99L/C122S/G151H/Q175L/Q192D (enzyme)
# chain: VVGGTDADEGEWPWQVSLHALGHGHSCGASLISPNWLVSAAHCYIDTRGSRWSDPTQWTAFLGLHDQSQRSAPGVQERRLKRIISHPFFNDDVPLDYDIALLELEKPAEYSSMVRPISLPDASHVFPAGKAIWVTGWGHTQYGGTHALILQKGEIRVINQTTCENLLPQLITPRMMCVGFLSGGVDSCDGDSGGPLSSVEADGRIFQAGVVSWGDGCAQRNKPGVYTRLPLFRDWIKENTGV
# B3: Modified MTSP-1 protease domain Q38H/I41S/D60bT/F60eS/Y60gW/F97D/ins97aV/T98P/F99L/C122S/G151N/Q175L/Q192D (enzyme)
# chain: VVGGTDADEGEWPWQVSLHALGHGHSCGASLISPNWLVSAAHCYIDTRGSRWSDPTQWTAFLGLHDQSQRSAPGVQERRLKRIISHPFFNDDVPLDYDIALLELEKPAEYSSMVRPISLPDASHVFPAGKAIWVTGWGHTQYGGTNALILQKGEIRVINQTTCENLLPQLITPRMMCVGFLSGGVDSCDGDSGGPLSSVEADGRIFQAGVVSWGDGCAQRNKPGVYTRLPLFRDWIKENTGV
# B4: Modified MTSP-1 protease domain Q38H/I41A/D60bV/F60eR/Y60gW/D96I/F97Y/ins97aN/T98G/F99L/C122S/G151N/Q175L/Q192D (enzyme)
# chain: VVGGTDADEGEWPWQVSLHALGHGHACGASLISPNWLVSAAHCYIDVRGRRWSDPTQWTAFLGLHDQSQRSAPGVQERRLKRIISHPFFNIYNGLDYDIALLELEKPAEYSSMVRPISLPDASHVFPAGKAIWVTGWGHTQYGGTNALILQKGEIRVINQTTCENLLPQLITPRMMCVGFLSGGVDSCDGDSGGPLSSVEADGRIFQAGVVSWGDGCAQRNKPGVYTRLPLFRDWIKENTGV
# B5: Modified MTSP-1 protease domain Q38H/I41A/D60bT/F60eK/Y60gW/F97T/ins97aE/T98G/F99L/C122S/G151H/Q175L/Q192D (enzyme)
# chain: VVGGTDADEGEWPWQVSLHALGHGHACGASLISPNWLVSAAHCYIDTRGKRWSDPTQWTAFLGLHDQSQRSAPGVQERRLKRIISHPFFNDTEGLDYDIALLELEKPAEYSSMVRPISLPDASHVFPAGKAIWVTGWGHTQYGGTHALILQKGEIRVINQTTCENLLPQLITPRMMCVGFLSGGVDSCDGDSGGPLSSVEADGRIFQAGVVSWGDGCAQRNKPGVYTRLPLFRDWIKENTGV
# B6: Q38H/I41S/D60bT/F60eS/Y60gW/D96Y/F97N/ins97aE/T98S/F99L/C122S/G151H/Q175L/Q192D (enzyme)
# chain: VVGGTDADEGEWPWQVSLHALGHGHSCGASLISPNWLVSAAHCYIDTRGSRWSDPTQWTAFLGLHDQSQRSAPGVQERRLKRIISHPFFNYNESLDYDIALLELEKPAEYSSMVRPISLPDASHVFPAGKAIWVTGWGHTQYGGTHALILQKGEIRVINQTTCENLLPQLITPRMMCVGFLSGGVDSCDGDSGGPLSSVEADGRIFQAGVVSWGDGCAQRNKPGVYTRLPLFRDWIKENTGV
# B7: Modified MTSP-1 protease domain Q38H/I41A/D60bV/F60eR/Y60gW/F97T/ins97aE/T98G/F99L/C122S/G151H/Q175L/Q192D (enzyme)
# chain: VVGGTDADEGEWPWQVSLHALGHGHACGASLISPNWLVSAAHCYIDVRGRRWSDPTQWTAFLGLHDQSQRSAPGVQERRLKRIISHPFFNDTEGLDYDIALLELEKPAEYSSMVRPISLPDASHVFPAGKAIWVTGWGHTQYGGTHALILQKGEIRVINQTTCENLLPQLITPRMMCVGFLSGGVDSCDGDSGGPLSSVEADGRIFQAGVVSWGDGCAQRNKPGVYTRLPLFRDWIKENTGV
# B8: Q38H/I41S/D60bT/F60eS/Y60gW/D96K/F97D/ins97aA/T98P/F99L/C122S/G151N/Q175L/Q192D (enzyme)
# chain: VVGGTDADEGEWPWQVSLHALGHGHSCGASLISPNWLVSAAHCYIDTRGSRWSDPTQWTAFLGLHDQSQRSAPGVQERRLKRIISHPFFNKDAPLDYDIALLELEKPAEYSSMVRPISLPDASHVFPAGKAIWVTGWGHTQYGGTNALILQKGEIRVINQTTCENLLPQLITPRMMCVGFLSGGVDSCDGDSGGPLSSVEADGRIFQAGVVSWGDGCAQRNKPGVYTRLPLFRDWIKENTGV
# B9: Modified MTSP-1 protease domain Q38H/I41S/D60bT/F60eS/Y60gW/D96K/F97D/ins97aA/T98P/F99L/C122S/G151H/Q175L/Q192D (enzyme)
# chain: VVGGTDADEGEWPWQVSLHALGHGHSCGASLISPNWLVSAAHCYIDTRGSRWSDPTQWTAFLGLHDQSQRSAPGVQERRLKRIISHPFFNKDAPLDYDIALLELEKPAEYSSMVRPISLPDASHVFPAGKAIWVTGWGHTQYGGTHALILQKGEIRVINQTTCENLLPQLITPRMMCVGFLSGGVDSCDGDSGGPLSSVEADGRIFQAGVVSWGDGCAQRNKPGVYTRLPLFRDWIKENTGV
# B10: Q38H/I41A/D60bV/F60eR/Y60gW/D96F/F97Y/ins97aN/T98G/F99M/C122S/G151N/Q175L/Q192G (enzyme)
# chain: VVGGTDADEGEWPWQVSLHALGHGHACGASLISPNWLVSAAHCYIDVRGRRWSDPTQWTAFLGLHDQSQRSAPGVQERRLKRIISHPFFNFYNGMDYDIALLELEKPAEYSSMVRPISLPDASHVFPAGKAIWVTGWGHTQYGGTNALILQKGEIRVINQTTCENLLPQLITPRMMCVGFLSGGVDSCGGDSGGPLSSVEADGRIFQAGVVSWGDGCAQRNKPGVYTRLPLFRDWIKENTGV
# B11: Modified MTSP-1 protease domain Q38H/I41S/D60bT/F60eS/Y60gW/D96Y/F97E/ins97aV/T98G/F99L/C122S/G151H/Q175L/Q192D (enzyme)
# chain: VVGGTDADEGEWPWQVSLHALGHGHSCGASLISPNWLVSAAHCYIDTRGSRWSDPTQWTAFLGLHDQSQRSAPGVQERRLKRIISHPFFNYEVGLDYDIALLELEKPAEYSSMVRPISLPDASHVFPAGKAIWVTGWGHTQYGGTHALILQKGEIRVINQTTCENLLPQLITPRMMCVGFLSGGVDSCDGDSGGPLSSVEADGRIFQAGVVSWGDGCAQRNKPGVYTRLPLFRDWIKENTGV
# B12: Modified MTSP-1 protease domain Q38H/I41A/D60bV/F60eR/Y60gW/D96P/F97W/ins97aN/T98G/F99L/C122S/G151N/Q175L/Q192E (enzyme)
# chain: VVGGTDADEGEWPWQVSLHALGHGHACGASLISPNWLVSAAHCYIDVRGRRWSDPTQWTAFLGLHDQSQRSAPGVQERRLKRIISHPFFNPWNGLDYDIALLELEKPAEYSSMVRPISLPDASHVFPAGKAIWVTGWGHTQYGGTNALILQKGEIRVINQTTCENLLPQLITPRMMCVGFLSGGVDSCEGDSGGPLSSVEADGRIFQAGVVSWGDGCAQRNKPGVYTRLPLFRDWIKENTGV
# B13: Modified MTSP-1 protease domain Q38H/I41A/D60bV/F60eR/Y60gW/D96I/F97N/T98G/F99L/C122S/G151N/Q175L/Q192D (enzyme)
# chain: VVGGTDADEGEWPWQVSLHALGHGHACGASLISPNWLVSAAHCYIDVRGRRWSDPTQWTAFLGLHDQSQRSAPGVQERRLKRIISHPFFNINGLDYDIALLELEKPAEYSSMVRPISLPDASHVFPAGKAIWVTGWGHTQYGGTNALILQKGEIRVINQTTCENLLPQLITPRMMCVGFLSGGVDSCDGDSGGPLSSVEADGRIFQAGVVSWGDGCAQRNKPGVYTRLPLFRDWIKENTGV
# B14: Q38H/I41A/D60bV/F60eR/Y60gW/F97D/F99L/C122S/G151H/Q175L/Q192D (enzyme)
# chain: VVGGTDADEGEWPWQVSLHALGHGHACGASLISPNWLVSAAHCYIDVRGRRWSDPTQWTAFLGLHDQSQRSAPGVQERRLKRIISHPFFNDDTLDYDIALLELEKPAEYSSMVRPISLPDASHVFPAGKAIWVTGWGHTQYGGTHALILQKGEIRVINQTTCENLLPQLITPRMMCVGFLSGGVDSCDGDSGGPLSSVEADGRIFQAGVVSWGDGCAQRNKPGVYTRLPLFRDWIKENTGV
# Tests used:
# [1] = biological target: proteinase-activated receptor 2 (PAR-2) (UniProt P55085); assay: cell-based or functional assay
# [2] = biological target: human complement protein C3 (human) (UniProt P01024); assay: cell-based or functional assay
# Chain of human complement protein C3 (human) (P01024 23-667, chain 1 of 2): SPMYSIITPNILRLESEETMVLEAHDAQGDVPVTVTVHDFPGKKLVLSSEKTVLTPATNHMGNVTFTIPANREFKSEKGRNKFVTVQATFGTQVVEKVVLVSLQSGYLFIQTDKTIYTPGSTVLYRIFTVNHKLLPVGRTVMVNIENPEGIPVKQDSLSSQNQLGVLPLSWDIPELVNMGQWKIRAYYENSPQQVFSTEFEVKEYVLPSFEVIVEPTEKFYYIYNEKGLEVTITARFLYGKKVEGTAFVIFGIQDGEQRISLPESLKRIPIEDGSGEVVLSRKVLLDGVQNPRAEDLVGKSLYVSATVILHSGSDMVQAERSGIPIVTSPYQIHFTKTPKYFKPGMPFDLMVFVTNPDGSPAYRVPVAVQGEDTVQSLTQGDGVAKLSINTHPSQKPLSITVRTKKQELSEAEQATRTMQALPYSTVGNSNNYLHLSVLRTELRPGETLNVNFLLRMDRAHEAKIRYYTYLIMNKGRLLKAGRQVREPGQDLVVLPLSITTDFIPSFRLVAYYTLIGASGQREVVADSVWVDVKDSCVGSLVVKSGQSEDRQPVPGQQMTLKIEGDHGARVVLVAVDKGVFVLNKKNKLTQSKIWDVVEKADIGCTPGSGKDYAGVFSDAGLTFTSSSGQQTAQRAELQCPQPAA
# Chain of human complement protein C3 (human) (P01024 672-1663, chain 2 of 2): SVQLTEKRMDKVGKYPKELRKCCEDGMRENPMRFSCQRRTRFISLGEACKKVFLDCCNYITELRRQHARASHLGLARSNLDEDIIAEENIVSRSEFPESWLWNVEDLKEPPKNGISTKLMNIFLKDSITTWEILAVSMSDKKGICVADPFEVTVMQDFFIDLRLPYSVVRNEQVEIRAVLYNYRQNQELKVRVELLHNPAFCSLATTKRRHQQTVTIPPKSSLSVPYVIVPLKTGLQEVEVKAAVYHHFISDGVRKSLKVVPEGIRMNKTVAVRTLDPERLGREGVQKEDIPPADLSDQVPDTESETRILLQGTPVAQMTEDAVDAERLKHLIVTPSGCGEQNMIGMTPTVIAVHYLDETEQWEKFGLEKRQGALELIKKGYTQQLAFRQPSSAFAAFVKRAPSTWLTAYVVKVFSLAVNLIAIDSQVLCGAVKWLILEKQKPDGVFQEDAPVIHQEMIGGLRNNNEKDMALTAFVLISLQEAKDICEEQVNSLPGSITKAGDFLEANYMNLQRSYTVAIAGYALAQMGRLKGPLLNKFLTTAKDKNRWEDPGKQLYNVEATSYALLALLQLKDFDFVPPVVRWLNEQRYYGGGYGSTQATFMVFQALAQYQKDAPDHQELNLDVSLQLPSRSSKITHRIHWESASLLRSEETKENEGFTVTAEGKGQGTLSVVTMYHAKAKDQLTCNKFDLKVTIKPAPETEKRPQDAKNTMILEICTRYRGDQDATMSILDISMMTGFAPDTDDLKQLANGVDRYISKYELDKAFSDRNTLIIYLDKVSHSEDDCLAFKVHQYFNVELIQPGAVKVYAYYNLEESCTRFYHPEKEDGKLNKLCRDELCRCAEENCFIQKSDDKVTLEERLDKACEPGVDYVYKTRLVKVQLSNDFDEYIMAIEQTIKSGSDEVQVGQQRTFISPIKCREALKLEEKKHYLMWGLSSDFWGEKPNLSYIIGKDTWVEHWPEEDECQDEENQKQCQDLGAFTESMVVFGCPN
# Chain of proteinase-activated receptor 2 (PAR-2) (P55085 37-397 limits assumed): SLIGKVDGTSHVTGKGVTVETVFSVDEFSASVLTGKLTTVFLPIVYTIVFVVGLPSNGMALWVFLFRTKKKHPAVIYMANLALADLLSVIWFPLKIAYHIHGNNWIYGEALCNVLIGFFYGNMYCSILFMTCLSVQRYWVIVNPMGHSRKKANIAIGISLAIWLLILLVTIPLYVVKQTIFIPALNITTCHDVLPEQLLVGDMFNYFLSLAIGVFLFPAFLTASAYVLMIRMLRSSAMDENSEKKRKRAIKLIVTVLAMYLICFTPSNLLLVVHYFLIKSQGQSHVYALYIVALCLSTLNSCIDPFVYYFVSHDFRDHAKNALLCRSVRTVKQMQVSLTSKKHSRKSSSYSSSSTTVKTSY
Binder,"PAR-2 cell based assay ED50 and SKGR/SL kcat/Km, against wild-type MTSP-1 protease domain with C122S [1] [fold]","EC50 (nM), cleavage of purified hC3 in vitro [2] [nM]"
B1,> 30,
B2,> 30,
B3,> 30,
B4,> 30,
B5,> 30,
B6,,4.53
B7,> 30,
B8,,5.92
B9,> 30,
B10,,3.76
B11,> 30,
B12,> 30,
B13,> 30,
B14,,3.72
